Results: patent US20100322937A1 (published 2010)

Experiments:
[1] = molecular target: T1, Y^246W EGFR (full-length human, FLAG tag) on BaF/3 cells (human, UniProt P00533 25-1210); test: Scatchard, 125I-EGF on BaF/3 cells
T1 construct: whole, on cells
Description: (§1) Ligand binding to cells expressing the wt or mutant EGFR was determined at room temperature in the presence of the internalization inhibitor phenylarsine oxide (PAO) (29) by cold saturation experiments. […] All experimental points were prepared in triplicate. At the end of the incubation, the cells were pelleted and washed twice in ice-cold PBS before transferring to fresh tubes for counting in a Wallac WIZARD γ-counter (PerkinElmer, Boston, Mass.). Scatchard plots and estimates of ligand binding affinities and receptor numbers were obtained using the Radlig program (BioSoft, Cambridge, UK).
(§2) Data were analyzed using the “Kell for Windows” RadLig program. ^{(a)}Number of receptors per cell were calculated from the Bₘₐₓ and the number of cells/tube in each ligand binding experiment.

[2] = molecular target: T2, E^578C EGFR (full-length human, FLAG tag) on BaF/3 cells (human, UniProt P00533 25-1210); test: Scatchard, 125I-EGF on BaF/3 cells
T2 construct: whole, on cells
Description: as §1, §2

[3] = molecular target: T3, wtEGFR: full-length human EGFR with FLAG tag after the leader, on BaF/3 cells (human, UniProt P00533 25-1210); test: Scatchard, 125I-EGF on BaF/3 cells
T3 construct: whole, on cells; BaF/3 cells have no endogenous EGF receptors; also called wtEGFR-BaF/3
Description: as §1, §2

[4] = molecular target: T4, V^583D EGFR (full-length human, FLAG tag) on BaF/3 cells (human, UniProt P00533 25-1210); test: Scatchard, 125I-EGF on BaF/3 cells
T4 construct: whole, on cells
Description: as §1, §2

[5] = molecular target: T5, Y^246D EGFR (full-length human, FLAG tag) on BaF/3 cells (human, UniProt P00533 25-1210); test: Scatchard, 125I-EGF on BaF/3 cells
T5 construct: whole, on cells
Description: as §1, §2

[6] = molecular target: T6, D^563H EGFR (full-length human, FLAG tag) on BaF/3 cells (human, UniProt P00533 25-1210); test: Scatchard, 125I-EGF on BaF/3 cells
T6 construct: whole, on cells
Description: as §1, §2

[7] = molecular target: T7, Y^246F EGFR (full-length human, FLAG tag) on BaF/3 cells (human, UniProt P00533 25-1210); test: Scatchard, 125I-EGF on BaF/3 cells
T7 construct: whole, on cells
Description: as §1, §2

[8] = molecular target: T8, L^245C/E^578C EGFR (full-length human, FLAG tag) on BaF/3 cells (human, UniProt P00533 25-1210); test: Scatchard, 125I-EGF on BaF/3 cells
T8 construct: whole, on cells
Description: as §1, §2

[9] = molecular target: T1, Y^246W EGFR (full-length human, FLAG …); test: Scatchard, 125I-EGF on BaF/3 cells, Kd2 (low-affinity site)
Description: as §1, §2

[10] = molecular target: T2, E^578C EGFR (full-length human, FLAG …); test: as above
Description: as §1, §2

[11] = molecular target: T3, wtEGFR: full-length human EGFR with …; test: as above
Description: as §1, §2

[12] = molecular target: T4, V^583D EGFR (full-length human, FLAG …); test: as above
Description: as §1, §2

[13] = molecular target: T5, Y^246D EGFR (full-length human, FLAG …); test: as above
Description: as §1, §2

[14] = molecular target: T6, D^563H EGFR (full-length human, FLAG …); test: as above
Description: as §1, §2

[15] = molecular target: T7, Y^246F EGFR (full-length human, FLAG …); test: as above
Description: as §1, §2

[16] = molecular target: T8, L^245C/E^578C EGFR (full-length human, …); test: as above
Description: as §1, §2

[17] = molecular target: T1, Y^246W EGFR (full-length human, FLAG …); test: calculated from Scatchard Kd and Bmax
Description: as §1
(§3) The data are representative of at least three separate experiments

[18] = molecular target: T2, E^578C EGFR (full-length human, FLAG …); test: calculated from Scatchard Kd and Bmax
Description: as §1, §3

[19] = molecular target: T3, wtEGFR: full-length human EGFR with …; test: calculated from Scatchard Kd and Bmax
Description: as §1, §3

[20] = molecular target: T4, V^583D EGFR (full-length human, FLAG …); test: calculated from Scatchard Kd and Bmax
Description: as §1, §3

[21] = molecular target: T5, Y^246D EGFR (full-length human, FLAG …); test: calculated from Scatchard Kd and Bmax
Description: as §1, §3

[22] = molecular target: T6, D^563H EGFR (full-length human, FLAG …); test: calculated from Scatchard Kd and Bmax
Description: as §1, §3

[23] = molecular target: T7, Y^246F EGFR (full-length human, FLAG …); test: calculated from Scatchard Kd and Bmax
Description: as §1, §3

[24] = molecular target: T3, wtEGFR: full-length human EGFR with …; test: Scatchard, 125I-EGF on BaF/3 cells, Kd1 (high-affinity site)
Description: as §1, §2

[25] = molecular target: T4, V^583D EGFR (full-length human, FLAG …); test: as above
Description: as §1, §2

[26] = molecular target: T6, D^563H EGFR (full-length human, FLAG …); test: as above
Description: as §1, §2

[27] = molecular target: T1, Y^246W EGFR (full-length human, FLAG …); test: cell-based or functional assay
[28] = molecular target: T2, E^578C EGFR (full-length human, FLAG …); test: cell-based or functional assay
[29] = molecular target: T3, wtEGFR: full-length human EGFR with …; test: cell-based or functional assay
[30] = molecular target: T4, V^583D EGFR (full-length human, FLAG …); test: cell-based or functional assay
[31] = molecular target: T5, Y^246D EGFR (full-length human, FLAG …); test: cell-based or functional assay
[32] = molecular target: T6, D^563H EGFR (full-length human, FLAG …); test: cell-based or functional assay
[33] = molecular target: T7, Y^246F EGFR (full-length human, FLAG …); test: cell-based or functional assay

% of sites (Kd2) [1]: 100% | R/cell (from Bmax) [1]: 29000 receptors/cell | % of sites (Kd2) [2]: 100% | R/cell (from Bmax) [2]: 34500 receptors/cell | % of sites (Kd1) [3]: 2.6% | % of sites (Kd2) [3]: 97.5% | R/cell (from Bmax) [3]: 34000 receptors/cell | % of sites (Kd1) [4]: 12.6% | % of sites (Kd2) [4]: 90.8% | R/cell (from Bmax) [4]: 38000 receptors/cell | % of sites (Kd2) [5]: 100% | R/cell (from Bmax) [5]: 12000 receptors/cell | % of sites (Kd1) [6]: 4.4% | % of sites (Kd2) [6]: 96.4% | R/cell (from Bmax) [6]: 23000 receptors/cell | % of sites (Kd2) [7]: 100% | R/cell (from Bmax) [7]: 30000 receptors/cell | % of sites (Kd2) [8]: 100% | Kd [9]: 2.5 nM | Kd [10]: 1.7 nM | Kd [11]: 1.6 nM | Kd [12]: 1.3 nM | Kd [13]: 2.1 nM | Kd [14]: 1.7 nM | Kd [15]: 2.8 nM | Kd [16]: 2.1 nM | [EGF] at which 500R/cell are occupied [17]: 60 pM | [EGF] at which 500R/cell are occupied [18]: 80 pM | [EGF] at which 500R/cell are occupied [19]: 16 pM | [EGF] at which 500R/cell are occupied [20]: < 1 pM | [EGF] at which 500R/cell are occupied [21]: 400 pM | [EGF] at which 500R/cell are occupied [22]: 8 pM | [EGF] at which 500R/cell are occupied [23]: 30 pM | Kd [24]: 0.029 nM | Kd [25]: 0.0026 nM | Kd [26]: 0.0176 nM | % maximal incorporation ([^3H]Thymidine) [27]: 0% | % maximal incorporation ([^3H]Thymidine) [28]: 100% | EC50 for EGF ([^3H]Thymidine incorporation) [28]: 0.1 nM | % maximal incorporation ([^3H]Thymidine) [29]: 100% | EC50 for EGF ([^3H]Thymidine incorporation) [29]: 0.012 nM | % maximal incorporation ([^3H]Thymidine) [30]: 100% | EC50 for EGF ([^3H]Thymidine incorporation) [30]: 0.006 nM | % maximal incorporation ([^3H]Thymidine) [31]: 0% | % maximal incorporation ([^3H]Thymidine) [32]: 90% | EC50 for EGF ([^3H]Thymidine incorporation) [32]: 0.005 nM | % maximal incorporation ([^3H]Thymidine) [33]: 16% | EC50 for EGF ([^3H]Thymidine incorporation) [33]: 0.03 nM
B1: Murine EGF, purified from mouse submaxillary glands (ligand, UniProt P01132 977-1029, looked up)
chain: NSYPGCPSSYDGYCLNGGVCMHIESLDSYTCNCVIGYSGDRCQTRDLRWWELR
modifications: iodinated with 125I (Iodogen) as tracer in the Scatchard assays
notes: mature; also called ^125I-EGF
